Data reported in article PMC4681293.

Molecular target: IFP2.0 (Deinococcus radiodurans)
Experiment: SEC

stoichiometry N: 2
Substance: IFP2.0
